Literature values as cited in PMC6953883, “Alterations of aqueous humor Aβ levels in Aβ-infused and transgenic mouse models of Alzheimer disease” (PLoS ONE, 2020).

Conditions: previous studies

Aβ: amyloid-β peptide of cited efflux and retention studies; Shibata et al. used Aβ(1-40)
half-time of Aβ efflux from CSF to blood: 34.63 min
